Measurements reported in the nanobody polyreactivity screen of Harvey et al. (2022).

Assay: yeast display, Sf9 membrane polyspecificity reagent, FACS + sequencing; frameworks hold sequencing errors
In short: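 Genes from sorted yeast were amplified by colony PCR, read by MiSeq 2 × 250 sequencing and filtered on CDR length. These cells carried a synthetic nanobody library in Saccharomyces cerevisiae BJ5465 and were sorted by FACS into low and high (top ~1%) gates on anti-HA and streptavidin fluorescence. Polyreactivity is labelled according to the gate of origin.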

Sequence	polyreactivity (PSR sort gate)
QVQLVESGGGLVQAGGSLRLSCAASGNIFDIYAMGWYRQAPGKERELVAAITSGVRTYYADSVKGLFTISRDNAKNTVYLQMNSVKPEDTAVYYCATPSPHVGLKWEYDYWGQGTQVTVSS	low polyreactivity
QVQLVESGGGLVQAGGSLRLSCAASGRISSQYAMGWYRQAPGKERELVAAISTSGDRTYYADSVKGRFTISRDTAKNTVYLEMNSLKPEDTAVYYCAKDCPYTYGRDIYEYWGQGTQVTVSS	low polyreactivity
QVQLVESVGGLVQAGGSLRLSCAASGRTFRTYTMGWYRQAPGKERELVAAIRSSGGRTYYADSVKGRFTISRDNAKNTVYLQMNSLKPEDTAVYYCAREYRGALHYYYCGQGTQVTVSS	high polyreactivity
QVQLVESGGGLVQAGGSLRLSCAASGSTFAYNDMGWYRQAQGKERELVADIRSGGNTYADSVKGRFTISRDNAKNTVYLQMNSLKPVDTAVYYCAVDGGEFSSYGYWGQGTQLTVSS	low polyreactivity
QFQLVESLGGLDQAGGSLRLSFAASGLIILAYAMVWYRQAPGKERELVAAISRNRGSTYYADSVKGRLTISRDNAKNTVYLQMNSLKPEVTEVYYCNNVSRSSVYLDYYYWGQGTQVTVSS	high polyreactivity
QVHLVESGGGLVQAGGSLRLSCAASGLTFYWYVMGWYRQAPGKERELVAVITGSGGSTYYADSVKGRFTISRDNAKNTVYLQMNSLKPEDTAAYYCARGGRYNRYYYWGQGTQVTVSS	high polyreactivity
QVQLVESGGGLVQAGGILRLSCSASGRIFQFYAMGWYRQAPGKERELVAGISWSGGSTNYADSVKGRFTISRDNAKNTVYLQMNSLKPEDSAVYYCNVDLYNWRGDSTGYDYWGQGTQVTVSS	low polyreactivity
QVQLVESGGVLVQAGGSLRLSCAASGSTFGKNTMGWYRQAPGKERELVAAISRGVSTYYAYSVKGRFTISRDNATNTFYLQMNSLKPEDTALYYCAAQEAYRWYGFDFWGQGTQVTVLS	high polyreactivity
QVQLVESGGGLVQAGGSLRLSCAASGFTFVFNARAWYRQAPGKERELVATITNGGSTYYADSVKGRFTISRDNAKNTVYLQMNSLKPEDTAVYYCAAVRKQCSGFDYWGQGTQVTVSS	high polyreactivity
QVQLVESGGGLVQAGGSLRLSCAASGSTLVSYAMGWYRQSPGKERELVATISWRGGSTYYADSVKGRFTISRDNAKNTVYLQMNSLKPEDTAVYYCAADLWHSQYYYGYEYWGQGTQVTVSS	low polyreactivity
QVQLVESGGGLVQAGGSLRLSCAASGGNFRLYAMGWYSPAPGKERELVAAINGGGSTNYADSVKGRFTISRDNAKNTVYLQMNSLKPEDTAVYYCNAVQYYRFQVYEYDYWGQGTQVTVSS	high polyreactivity
QVQLVESGGGLVQAGGSLRLSCAASVSIFYPYAMGWYRQAPGKERELVAAIRWSGGRTYYADSVKGRFTISRDNAKNTVYLQMNSLKPEDTAVYYCAADGQVSGYDYWGQGTQVTVSS	high polyreactivity
QVQLVESGGGLVQAGGSLRLSCAASGGIFFSNVMGWYRQAPGKERELVAAITSGDNTNYADSVKGRFTISRDNAKNTVYLQMNSLKPEDTAVYYCNADVASEYSDKYDYWGQGTQVTVSS	low polyreactivity
QVQLVESGGGLVQAGGSLRLSCAASGFTFYVNAMGWYRQATGKERELVAAISSRGGSTYYADSVKGRFTISRDNAKNTVYLQMNSLKPEDTAVYYCNRVRDQRRYEYWGQGTQVTVSS	high polyreactivity
QVQLVESGGGLVQAGGSLRLSCAASGSTFYVNAMGSYRKAPGKEMEFVAAITWNSGSTYYADSVKGRFTISRDNANYTVYLQMNSLKPEDTAVYYCAAVLSVRDYGYDYWGQGTQVTVSS	low polyreactivity
QVQLVESGGGLVKEGGSLRLSSAASGSTNRYYAMGLYRQAPGKERELVAGITTGGGRTYYADSEKGRFTISRDNAKYTVYLQMTSLKPEDTAVYYCAADRLSHYWYRISYDYWGQCTQVTVSS	high polyreactivity
QVQLVESGGGLVQAGGSLRLSCAASGSTYYNAMGWSRQAPGNERELVAAIRFRSGSTYYADSVKGRFTISRDNAKNTVYLQMNSLTPEDTAVYYCAADNKRSWRYAYNYWGQGTQVTVSS	high polyreactivity
QVELQVSGGGLVRAGGSLRLSCAASGNIFDADIMGWYRQAPGKERELVASITGGGSTSYAESAKGRFTISRDNAKNAVYLQMNSLKPEDTAVYYCAKDGYVYGDWYTYAYDYWGQGTQVTVSS	low polyreactivity
HVQLVESGGGLVQAGGSLRLSCAASGSIFVVYAMGWYRQAPGKERELVASIRTGGSTNYADSVKGRYTISRDNAKNTVYLQMNSLKPEDTAVYYCAAASWNSNRHYYVARYYYWGQGTQVTVSS	high polyreactivity
QVQRVESGGGLVQAGGSLRLSCAASGITFGEYAMGWYSPAPGNERELVAGINWSGDGTYYADSVKGRFTISRDNEKNTVYLQMNSLKPEDTAVYYCAVDPGGGNYIYYYNEYYYWGQGTQVTLSS	low polyreactivity
QVQLVESGGGLVQAGGSLRLSCAASGFTFVRNTLGWYRQAPGKERELVATITFSGGSTYYADSVKGRFTISRDNAKNTVYLQMNTLKPEDTAVYYCAAEDWDDGYDYWGQGTQVTVSS	high polyreactivity
QVHLVESGGGLVQAGGSLRLSCAASGSLSVRNVMGWYSQAPGKERELVATIRRSGGSTSYADSVKGRFTISRDNSKNSVYLQMNSLKPEDTAVYYCAAVVYTTYRRYDYWGQGTQVNVSS	low polyreactivity

Sequence	polyreactivity (PSR sort gate)
QVQLVESGGGLVQAGGSLRLSCAASGFIFIKYAMGWYRQAPGKERELLAASSFRGGRTYYADSVKGRFTISRDNAKNTVYLQMNSLNPEETAVYYCAAETRDYSEGYYWGQGTQVTVSS	high polyreactivity
QVQLVESGGGLVQAGGSLRLSCAASGRTLGFYAMGWYRQAPGKEREFVAAISSSVGRTYYADSVKGRFTISRDNAKNTVYLQMNSLKPEDTAVYYCAADRTDTSNYWGQGTQVTVSS	high polyreactivity
QVQLVESGGGLVQAGGSLRLSCAASGSTFLYYAMGWYRQAPGKEREFVAAISISGGSTYYADSVKGRFTISRDNAKNTVYLQMNSLKPEDTAVYYCAARKKEYKPGNYWGQGTQVTVSS	low polyreactivity
QVQLVESGGGLVQAGGSLRLSCAASGFTFTYYVMGWYRQAPGKERELVAAISVSGGSTYYADSVKGRFTITRDNAKNTVYLQMNSLKPEDTAVYYCAARSPFYSYTPGYEYWGQGTQVTVSS	high polyreactivity
QVQLVESGGGLVQAGGSLRLSCAASGRTIRAYTMGWYRQAPGNERELVAAISTPGGSTYYADSVKGRFTISRDNAKNTVYLQLNSLKPEDTAVYYCAADYGGPITGYEYWGQGTQVTVSS	low polyreactivity
QVQLVESGGGLVQAGGSLRLSCAASGRIFDYNAMGWYRQAPGKERELVAAINSGGSTYADSVKGRFTISRDNAKNTVYLQMNSLNPEDTAVYYCAKSLGQTDWEYDSWGQGTQVTVSS	low polyreactivity
QVQLVESGGGLVQAGGSHRLSCAASGITLGRYAMGWYRQAPGKEREFVAAISSWSGGSTTYADSVKGRFTISRDNAKNTVYLQMNSLKPEDTAVYYWNARRYYGRYYLGHSDYDYWGQGTQVTVSS	high polyreactivity
QVQLVESGGGLVQAGGSLRLSCAASGFTFHRNAMGWYRQAPGKERELVAAISTRGGSTAYADSVKGRFTISRDNAKNTVYLQMNSLKPEDTAVYYCAARVRVTGTYYTKYDYWGQGTQVTVSS	high polyreactivity
QVQLVESGGGLVQAGGSLRLSCAASGFTLFFYAMGWYRQAPGKEREFVASIRTSGGSTYYADSVKGRFTISRDNAKNTVYLQMNSLKPEDTAVYYCAARPLYGYGYWGQGTQVTVSS	high polyreactivity
QVQLVESGGGLVQAGGSLRLSCAASGSIFGANAMGWYRKAPGKERELVAAISTRGGRTYYADSVKGRFTISRDNAKNTVYLQMNSLKPEDTAVYYCATSGGRPYKYEYWGQGTQVTVSS	high polyreactivity
QVQLVESGGGLVQAGGSLRLSCAASGSTFAGNAMGWYRQAPGKERELVAAITWSGGNTNYADSVKGRFTISRDNAKNTVYLQMNSLKPEDTAVYYCASDFSGSLAYDYWGQGTQVTVSS	low polyreactivity
QVQLVESGRGLVQAGGSLRLSGAASGITQDDYDMGWSRQAPGKQRELVAAITSGGSTNYAHSVKGRFTNSRDNATNTVYLQMNSLKPEDTAVYYCAADTARTRIFDYWGQGTQVTVSS	low polyreactivity
QFQHVESGGGLVQARGSRRLSCAASGRTLYRNAMGWYRPARGKERELVAAITSGGHTKYADSVKGRFTISRDNAKNTVYLQMNSLKPVDTAVYYCNARYIRYSVGFLYTRYDYCGQGTQVTVSS	high polyreactivity
QVQLVESGGGLVQAGGSLRLSCAASGFTFFANAMGWYRQAPGKERELVAAISISDATTYYADSVKGRFTISRDNAKNTVYLQMNSLKPEDTAVYDCAAEPEYIAGPLDYWGQGTQVTVSS	high polyreactivity
QVQLVESGGGLVQAGGSLRLSCAAYGSIFCIFAMGWYRQAPGKEWELVAAISSDGSTKYADSVKGRFTISRDNAKNTVYFQMNSLKPEDTAVYYCAKLKYVRIGGPKQSMALDYWGQGTQVTVSS	low polyreactivity
QVQLVESGGGLVQAGGSLRLSCAASGITFVQNVMGWYRQAPGKEREFVAGINNSGGSTYYADSVKGRFTISRDNAKNTVYLQMNSLKPEDTAVYYCAAVYDRYTYAFVYRYRRMYYWGQGTQVTVSS	low polyreactivity
QVQLVESGARLVQAVGSLRLSCAASARILTFNAMGWYRQAPGKEREVVASITSDVSTYYADSVKGRFTISRDNAKTTVYLQMNSLKPEDTAVYYCAADGWYTYVGRLDYWRQGTQVTVSS	low polyreactivity
QVQLVESGGGLVQAGGSLRLICAASGLIFDYYAMGWYRQSPGKDRELVAAITSSSGITYYADSVKGRFTISRDNAKNTVSLQMNSLKPEDTAVYYCNADTRTTTRRFNPYDYWGQGTQVTVSS	low polyreactivity
QVQLVESCGGLVQAGGSLRLSCAASGLTFYQNDMGWYRQAPGKERELVAAITLSGDITYYADSVKGRFTISRDNAKNTVYLQMNSLKPEDTAVYYCAADGYLLYVQHPNGRRYDYWGQGTQVTVSS	low polyreactivity
QVQLVESGGGLVQAGGSLRLSCAASGSTFRYNAMGWYRQEPGKERELVAAISSSGGSTRYADSVKGRFTISRDNAKNTVYLQMNSLKPEDTAVYHCAVRFYDWRYYYWGQGTQVTVSS	high polyreactivity
QVQLVESGGGLVQAGGSLRLSCAASGFIFPLYAMGWYRQAPGKERELVAAITWRGDTTSYADSVKGRFTISRDNAKNTVYLQKNSLKPEDTAVDYCAAVRYPSGYDYWGQGTQVTVSS	high polyreactivity
